The target in assay [1] is YFP-TRPV6 (human ('hTRPV6' in p-0012; the printed GenBank AF160798 is rat, from memory)). The assay can be described thus: FRET or BRET. On the technique in general: Bioluminescence resonance energy transfer reports proximity on the nanometre scale.
Assay [2] concerns the target CFP-N198-TRPV6 (human ('hTRPV6' in p-0012; the printed GenBank AF160798 is rat, from memory)). The assay can be described thus: FRET or BRET.

The values below come from publication PMC3471760.

Sequence of CFP-N198-TRPV6 (human ('hTRPV6' in p-0012; the printed GenBank AF160798 is rat, from memory)) (Q9R186 whole entry): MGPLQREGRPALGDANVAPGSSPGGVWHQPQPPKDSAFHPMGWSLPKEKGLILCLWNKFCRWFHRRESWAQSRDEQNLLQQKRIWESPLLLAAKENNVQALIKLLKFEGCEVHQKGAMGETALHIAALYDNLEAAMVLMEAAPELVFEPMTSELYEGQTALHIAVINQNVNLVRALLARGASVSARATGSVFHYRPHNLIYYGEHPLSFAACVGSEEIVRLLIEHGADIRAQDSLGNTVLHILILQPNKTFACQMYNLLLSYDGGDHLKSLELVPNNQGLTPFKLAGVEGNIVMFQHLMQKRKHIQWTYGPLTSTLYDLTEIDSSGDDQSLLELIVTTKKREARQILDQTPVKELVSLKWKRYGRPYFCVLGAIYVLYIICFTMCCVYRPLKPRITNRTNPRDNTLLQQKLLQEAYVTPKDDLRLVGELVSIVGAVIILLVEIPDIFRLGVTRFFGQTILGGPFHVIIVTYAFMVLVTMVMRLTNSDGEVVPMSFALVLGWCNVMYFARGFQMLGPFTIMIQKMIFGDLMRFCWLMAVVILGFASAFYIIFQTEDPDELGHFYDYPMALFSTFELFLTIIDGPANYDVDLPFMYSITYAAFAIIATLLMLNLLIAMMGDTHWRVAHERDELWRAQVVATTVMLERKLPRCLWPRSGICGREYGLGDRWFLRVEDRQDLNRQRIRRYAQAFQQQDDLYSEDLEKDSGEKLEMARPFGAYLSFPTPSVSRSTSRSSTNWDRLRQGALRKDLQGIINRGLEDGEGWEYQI
Sequence of YFP-TRPV6 (human ('hTRPV6' in p-0012; the printed GenBank AF160798 is rat, from memory)) (Q9R186 whole entry): as above

For the molecule “CFP-TRPC1 (from UniProt P48995-2 1-759) (natural protein)”, the FRET in assay [1] was found to be 0.07.
Still for that read-out and setting: the result for “CFP-TRPC4 (from UniProt Q9QUQ5-1 1-974) (natural protein)” reads 0.02; that for “CFP-TRPC5 (from UniProt Q9QX29 1-975) (natural protein)”, 0.02.
“YFP-N193-TRPC1 (from UniProt P48995-2 1-193) (domain or fragment)” had an FRET in assay [2] of 0.11.

B1: CFP-TRPC3 (natural protein)
chain: MSTKVRKCKEQARVTFPAPEEEEDEGEDEGAEPQRRRRGWRGVNGGLEPRSAPSQREPHGYCPPPFSHGPDLSMEGSPSLRRMTVMREKGRRQAVRGPAFMFNDRGTSLTAEEERFLDAAEYGNIPVVRKMLEESKTLNVNCVDYMGQNALQLAVGNEHLEVTELLLKKENLARIGDALLLAISKGYVRIVEAILNHPGFAASKRLTLSPCEQELQDDDFYAYDEDGTRFSPDITPIILAAHCQKYEVVHMLLMKGARIERPHDYFCKCGDCMEKQRHDSFSHSRSRINAYKGLASPAYLSLSSEDPVLTALELSNELAKLANIEKEFKNDYRKLSMQCKDFVVGVLDLCRDSEEVEAILNGDLESAEPLEVHRHKASLSRVKLAIKYEVKKFVAHPNCQQQLLTIWYENLSGLREQTIAIKCLVVLVVALGLPFLAIGYWIAPCSRLGKILRSPFMKFVAHAASFIIFLGLLVFNASDRFEGITTLPNITVTDYPKQIFRVKTTQFTWTEMLIMVWVLGMMWSECKELWLEGPREYILQLWNVLDFGMLSIFIAAFTARFLAFLQATKAQQYVDSYVQESDLSEVTLPPEIQYFTYARDKWLPSDPQIISEGLYAIAVVLSFSRIAYILPANESFGPLQISLGRTVKDIFKFMVLFIMVFFAFMIGMFILYSYYLGAKVNAAFTTVEESFKTLFWSIFGLSEVTSVVLKYDHKFIENIGYVLYGIYNVTMVVVLLNMLIAMINSSYQEIEDDSDVEWKFARSKLWLSYFDDGKTLPPPFSLVPSPKSFVYFIMRIVNFPKCRRRRLQKDIEMGMGNSKSRLNLFTQSNSRVFESHSFNSILNQPTRYQQIMKRLIKRYVLKAQVDKENDEVNEGELKEIKQDISSLRYELLEDKSQATEELAILIHKLSEKLNPSMLRCE
On to B1, for which the FRET in assay [1] came out at 0.01.
